This is an account of results in patent publication US20250121063A1, “COMPOSITIONS OF […] RESISTANCE TO P[…] RELATED METHODS OF USE” (priority 2023, published 2025).

Entries after “also recorded” stand apart in the source; their conditions may differ.

Data set [1] relates to P14 CD8+CD45.2+ T-cells. Type of data set: cell-based, mouse.
Data set [2] relates to LCMV (Lymphocytic choriomeningitis) clone 13. Particulars: mouse, in vivo.
Data set [3] concerns B16-OVA melanoma. The data set is described as follows: Adoptive transfer of shRNA-transduced OT-1 cells into mice bearing B16-OVA melanoma. Particulars: compared with shFF or HBSS. Format: in vivo, mouse. The text has this: Referring to FIG. 1, this indicates a normal mouse CD8+ treated with a construct expressing: control short hairpin RNA (shFF) or short hairpin RNA against mouse PTGIR gene. OT-1 is an anti-OVA T cell receptor that recognizes ovalbumin epitope (OVA) antigen variant E1 ([…]) restricted by H2-Kb. Mouse T cells that constitutively express OT-1 (“OT-1 cells”) were transduced with a construct expressing short hairpin RNA against mouse Ptgir gene (“shPTGIR”) or control short hairpin RNA (“shFF”; against firefly luciferase).
At day 0, mice were inoculated with […] B16-OVA melanoma cells (these cells constitutively express the OVA protein and present OVA epitopes on cell surface MHC). On Day 7 mice received (i.v.) 1E6 adoptively transferred gene modified OT-1 cells or Hank's buffered saline solution (HBSS).
At day 0, mice inoculated with B16-OVA melanoma. On Day 7 mice received adoptively transferred, gene modified CD8+ cells on Day 7 or saline (HBSS).
Referring to FIG. 2, this example was performed in the same way as Example 2.

B1: shPTGIR (nucleic acid)
DNA: AGCACGAGAGGAUGAAGUUUACUAGUGAAGCCACAGAUGUAGUAAACUUCAUCCUCUCGUGCC
modifications: expressed or natural sequence
With B1, in data set [1], the “IFNγ and TNFα response to antigen stimulation” value was “capable of responding to antigen stimulation”. Also, in data set [2], the LAG-3 expression entry is “lower LAG-3 expression”, the “absolute abundance of transduced CD45.2 T-cells” value is recorded as “higher absolute abundance; also recorded: greater absolute numbers”, the “expansion of adoptively transferred cells (CD45.2+)” value is reported as “highly significant expansion” and the “percentage of Tim-3” value is given as “lower percentage of Tim-3”. In addition, the “phenotypic markers of exhaustion” value in data set [2] is “reduced phenotypic markers of exhaustion”. The tumor growth result in data set [3] (1E6 gene modified OT-1 cells i.v. on Day 7 after B16-OVA inoculation) is on record as “reduced tumor growth”. In addition, the survival result in data set [3] (mice with B16-OVA melanoma, OT-1 cells transferred Day 7) is recorded as “increased survival”.
